Our source for the abundance fitness values is the Human Domainome abundance scans (Beltran et al. 2025).

± gives the uncertainty stated by the source.

B1: Protein maelstrom homolog, residues 3 to 71; numbered along this chain, Q96JY0 (parent)
chain: NRKASRNAYYFFVQEKIPELRRRGLPVARVADAIPYCSSDWALLREEEKEKYAEMAREWRAAQGKDPGP

In the series the parent is B1. Description: abundance fitness (aPCA) (normalised: wild type 0, dead -1); higher = more abundant; growth selection in yeast, the domain comes from the species named. To be noted: Homo sapiens.
For NRKASRNAYYFFVQEKIPELRRRGLPVARVADAIPYCSSDWALLREEEKEKYAEMAREWRAAQGRDPGP [K65R], the abundance fitness was -0.037 ± 0.042.
For the variant NRKASRNAYYFFVQEKIPELRRRGLPVARVADAIPYCSSDWALLREEEKEKYAEMAREWRAAQGVDPGP [K65V], the abundance fitness was -0.12 ± 0.065.
NRKASRNAYYFFVQEKIPELRRRGLPVARVADAIPYCSSDWALLREEEKEKYAEMAREWRAAQGNDPGP [K65N]: the abundance fitness was -0.116 ± 0.14.
On to NRKASRNAYYFFVQEKIPELRRRGLPVARVADAIPYCSSDWALLREEEKEKYAEMAREWRAAQGHDPGP [K65H], for which the abundance fitness was -0.259 ± 0.11.
Consider NRKASRNAYYFFVQEKIPELRRRGLPVARVADAIPYCSSDWALLREEEKEKYAEMAREWRAAQGSDPGP [K65S], for which the abundance fitness was -0.154 ± 0.066.
For the variant NRKASRNAYYFFVQEKIPELRRRGLPVARVADAIPYCSSDWALLREEEKEKYAEMAREWRAAQGQDPGP [K65Q], the abundance fitness is -0.084 ± 0.089.
With NRKASRNAYYFFVQEKIPELRRRGLPVARVADAIPYCSSDWALLREEEKEKYAEMAREWRAAQGKDPHP [G68H], the abundance fitness turned out to be 0.038 ± 0.18.
Regarding NRKASRNAYYFFVQEKIPELRRRGLPVARVADAIPYCSSDWALLREEEKEKYAEMAREWRAAQGKDPIP [G68I], the abundance fitness was -0.296 ± 0.15.
Take NRKASRNAYYFFVQEKIPELRRRGLPVARVADAIPYCSSDWALLREEEKEKYAEMAREWRAAQGKDPVP [G68V]: the abundance fitness is -0.376 ± 0.072.
Next, NRKASRNAYYFFVQEKIPELRRRGLPVARVADAIPYCSSDWALLREEEKEKYAEMAREWRAAQGKDPKP [G68K]: -0.025 ± 0.11.
As for NRKASRNAYYFFVQEKIPELRRRGLPVARVADAIPYCSSDWALLREEEKEKYAEMAREWRAAQGKDPRP [G68R], the figure is -0.079 ± 0.057.
As for NRKASRNAYYFFVQEKIPELRRRGLPVARVADAIPYCSSDWALLREEEKEKYAEMAREWRAAQGKDPWP [G68W], the figure is -0.128 ± 0.098; as for NRKASRNAYYFFVQEKIPELRRRGLPVARVADAIPYCSSDWALLREEEKEKYAEMAREWRAAQGKDPDP [G68D], -0.083 ± 0.087; as for NRKASRNAYYFFVQEKIPELRRRGLPVARVADAIPYCSSDWALLREEEKEKYAEMAREWRAAQGKDPMP [G68M], -0.048 ± 0.086.
Regarding NRKASRNAYYFFVQEKIPELRRRGLPVARVADAIPYCSSDWALLREEEKEKYAEMAREWRAAQGKDPFP [G68F], the abundance fitness is -0.119 ± 0.14.
As to NRKASRNAYYFFVQEKIPELRRRGLPVARVADAIPYCSSDWALLREEEKEKYAEMAREWRAAQGKDPEP [G68E], the abundance fitness worked out at 0.014 ± 0.068.
NRKASRNAYYFFVQEKIPELRRRGLPVARVADAIPYCSSDWALLREEEKEKYAEMAREWRAAQGKDPSP [G68S]: the abundance fitness was -0.273 ± 0.098.
Next, NRKASRNAYYFFVQEKIPELRRRGLPVARVADAIPYCSSDWALLREEEKEKYAEMAREWRAAQGKDPQP [G68Q]: -0.064 ± 0.1; NRKASRNAYYFFVQEKIPELRRRGLPVARVADAIPYCSSDWALLREEEKEKYAEMAREWRAAQGKDPCP [G68C]: -0.12 ± 0.17.
For NRKASRNAYYFFVQEKIPELRRRGLPVARVADAIPYCSSDWALLREEEKEKYAEMAREWRAAQGKDPNP [G68N], the abundance fitness was -0.459 ± 0.26.
For NRKASRNAYYFFVQEKIPELRRRGLPVARVADAIPYCSSDWALLREEEKEKYAEMAREWRAAQGKDPLP [G68L], the abundance fitness was -0.309 ± 0.06.
Turning to NRKASRNAYYFFVQEKIPELRRRGLPVARVADAIPYCSSDWALLREEEKEKYAEMAREWRAAQGKDPAP [G68A], the abundance fitness is -0.139 ± 0.1.
With NRKASRNAYYFFVQEKIPELRRRGLPVARVADAIPYCSSDWALLREEEKEKYAEMAREWRAAQGKDPYP [G68Y], the abundance fitness is -0.646 ± 0.18.
With NRKASRNAYYFFVQEKIPELRRRGLPVARVADAIPYCSSDWALLREEEKEKYAEMAREWRAAQGKDPTP [G68T], the abundance fitness was -0.186 ± 0.15.
Turning to NRKASRNAYYFFVQEKIPELRRRGLPVARVADAIPYCSSDWALLREEEKEKYAEMAREWRAAQGKDPGM [P69M], the abundance fitness was -0.144 ± 0.14.
For the variant NRKASRNAYYFFVQEKIPELRRRGLPVARVADAIPYCSSDWALLREEEKEKYAEMAREWRAAQGKDPGR [P69R], the abundance fitness turned out to be 0.397 ± 0.18.
In the case of NRKASRNAYYFFVQEKIPELRRRGLPVARVADAIPYCSSDWALLREEEKEKYAEMAREWRAAQGKDPGF [P69F], the abundance fitness was 0.035 ± 0.17.
For NRKASRNAYYFFVQEKIPELRRRGLPVARVADAIPYCSSDWALLREEEKEKYAEMAREWRAAQGKDPGL [P69L], the abundance fitness amounted to 0.189 ± 0.13.
Turning to NRKASRNAYYFFVQEKIPELRRRGLPVARVADAIPYCSSDWALLREEEKEKYAEMAREWRAAQGKDPGE [P69E], the abundance fitness was determined as 0.168 ± 0.31.
As for NRKASRNAYYFFVQEKIPELRRRGLPVARVADAIPYCSSDWALLREEEKEKYAEMAREWRAAQGKDPGQ [P69Q], the abundance fitness was -0.281 ± 0.35.
Regarding NRKASRNAYYFFVQEKIPELRRRGLPVARVADAIPYCSSDWALLREEEKEKYAEMAREWRAAQGKDPGA [P69A], the abundance fitness was -0.007 ± 0.091.
Consider NRKASRNAYYFFVQEKIPELRRRGLPVARVADAIPYCSSDWALLREEEKEKYAEMAREWRAAQGKDPGV [P69V], for which the abundance fitness was found to be 0.013 ± 0.086.
NRKASRNAYYFFVQEKIPELRRRGLPVARVADAIPYCSSDWALLREEEKEKYAEMAREWRAAQGKDPGK [P69K]: the abundance fitness was found to be 0.411 ± 0.11.
Next, NRKASRNAYYFFVQEKIPELRRRGLPVARVADAIPYCSSDWALLREEEKEKYAEMAREWRAAQGKDPGI [P69I]: -0.556 ± 0.39; NRKASRNAYYFFVQEKIPELRRRGLPVARVADAIPYCSSDWALLREEEKEKYAEMAREWRAAQGKDPGC [P69C]: 0.071 ± 0.17.
As to NRKASRNAYYFFVQEKIPELRRRGLPVARVADAIPYCSSDWALLREEEKEKYAEMAREWRAAQGKDPGS [P69S], the abundance fitness was found to be 0.126 ± 0.083.
With NRKASRNAYYFFVQEKIPELRRRGLPVARVADAIPYCSSDWALLREEEKEKYAEMAREWRAAQGKDPGH [P69H], the abundance fitness is -0.049 ± 0.17.
As for NRKASRNAYYFFVQEKIPELRRRGLPVARVADAIPYCSSDWALLREEEKEKYAEMAREWRAAQGKDPGG [P69G], the figure is 0.392 ± 0.19; as for NRKASRNAYYFFVQEKIPELRRRGLPVARVADAIPYCSSDWALLREEEKEKYAEMAREWRAAQGKDPGN [P69N], -0.341 ± 0.38.
